For one data set, the system named is animal cells. To be noted: reported, no source named; cited from earlier work.
Data set [1] addresses T1, In vitro-translated AtGPA1 pre-incubated with GTPgammaS (permanently activated conformation) (Arabidopsis thaliana, UniProt P18064 1-383).
T1 construct: Same polypeptide as m3 but a different nucleotide state; also called GPA1-GTPgammaS
T1 sequence (looked up): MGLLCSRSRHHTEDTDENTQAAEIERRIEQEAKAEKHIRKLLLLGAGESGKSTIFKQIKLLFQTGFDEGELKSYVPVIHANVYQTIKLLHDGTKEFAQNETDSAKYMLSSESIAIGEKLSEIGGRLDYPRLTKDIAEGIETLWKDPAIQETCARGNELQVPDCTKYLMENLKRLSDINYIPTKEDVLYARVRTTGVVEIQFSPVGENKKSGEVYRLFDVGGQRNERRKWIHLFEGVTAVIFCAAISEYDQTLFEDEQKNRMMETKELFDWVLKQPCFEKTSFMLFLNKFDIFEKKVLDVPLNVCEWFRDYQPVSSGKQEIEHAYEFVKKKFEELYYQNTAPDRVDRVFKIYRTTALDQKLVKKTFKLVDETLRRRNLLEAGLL
Nature of the data set: in vitro association/activity assay, GPA1:Pirin1 1:1, interaction inferred from loss of quercetinase activity. The protocol: (§1) Translated Pirin1 was prepared as described above and in vitro association assays were conducted in assay buffer (pre-incubations included magnesium) at 26° C. (Adams and Jai, J. Biol. Chem. 280(31):28675-82, 2005; Warpeha et al., Plant Physiol. 140:844-55, 2006). GPA1 was incubated with Pirin1 in a 1:1 ratio. “Activated” Pirin1 was achieved by pre-incubation with 100 μM GTPγS (a non-hydrolysable GTP analog). “Inactivated” Pirin1 was achieved by pre-incubation with GDP, or GDPγS (a non-hydrolysable GDP analog). Both pre-incubations occurred overnight in darkness at 10° C.
(§2) The observed AtPirin1 quercetinase activity is regulated through its' interactions with GPA. […] AtGPA1 bound to one of the two non-hydrolyzable analogs was then incubated with AtPirin1 and quercetin in conditions identical to that for FIG. 1.

Data set [2] concerns the target T2, In vitro-translated AtGPA1 pre-incubated with GDPalphaS (permanently inactive conformation) (Arabidopsis thaliana, UniProt P18064 1-383).
T2 construct: Same polypeptide as m2 but a different nucleotide state; also called GPA1-GDPalpha
T2 sequence (looked up): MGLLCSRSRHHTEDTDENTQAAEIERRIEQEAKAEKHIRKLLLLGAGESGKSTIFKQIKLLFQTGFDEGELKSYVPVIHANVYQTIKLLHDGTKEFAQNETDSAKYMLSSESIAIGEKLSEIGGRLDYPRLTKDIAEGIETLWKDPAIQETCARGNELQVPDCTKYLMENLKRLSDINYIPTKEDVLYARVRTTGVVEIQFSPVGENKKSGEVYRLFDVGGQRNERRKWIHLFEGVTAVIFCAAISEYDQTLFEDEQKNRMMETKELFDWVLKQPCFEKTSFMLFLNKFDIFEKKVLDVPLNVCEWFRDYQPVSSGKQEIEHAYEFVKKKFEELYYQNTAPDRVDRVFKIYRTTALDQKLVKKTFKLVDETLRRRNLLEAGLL
The data set can be described thus: in vitro association/activity assay, GPA1:Pirin1 1:1, association inferred from the quercetin absorbance spectrum. How it is done:
as §1, §2

A short description of data set [3]: Quercetinase (quercetin 2,3-dioxygenase) activity of in vitro-translated AtPirin1, absorbance spectrum. It is filed as biochemical, Arabidopsis thaliana. How it is done: Full-length PIRIN1 template was prepared, amplified and purified by the methods described (Lapik and Kaufman, Plant Cell. 15(7):1578-90, 2003; Warpeha et al., Plant Physiol. 140:844-55, 2006). Pirin1 proteins were individually produced by coupled in vitro transcription/translation using TNT T7 Coupled Wheat Germ Extract System (Promega; Madison, Wis.) as directed and as modified previously (Warpeha et al., Plant Physiol. 140:844-55, 2006). Translated Pirin1 was subsequently incubated with quercetin in complete darkness in a 26° C. circulating water bath for 15 minutes.
The quercetin 2,3-dioxygenase activity of Pirin1 was determined as described in Adams and Jai (J. Biol. Chem. 280(31):28675-82, 2005). Briefly, the quercetin 2,3-dioxygenase activity of pirin wase assayed at 295 K for 5 min in a reaction mixture containing 50 mm NaH2PO4, pH 8.0, 300 mm NaCl, 60 μm quercetin in Me2SO, and 18.5 nm enzyme. Activity was observed by following the decrease in the absorbance maximum for quercetin, which occurs at 384 nm at pH 8.0. The inhibitors kojic acid, sodium diethyldithiocarbamate, and 1,10-phenanthroline monohydrochloride were dissolved in Me2SO and added to the reactions at a final concentration of 50 nm.
as §1

Turning to `O=c1c(O)c(-c2ccc(O)c(O)c2)oc2cc(O)cc(O)c12` [quercetin], the “concentration considered toxic in animal cells” value in the data set with animal cells is on record as “above 20 μM”.

B1: Arabidopsis thaliana Pirin1 (AtPirin1), in vitro-translated (enzyme)
chain: MTYENNSVPRIVIKKVLAKLEKEGEGAVVRNGITKIDQKLLDPFVLLVEFSFSLSAGFPDHPHRGFESVTYMLQGGIIHKDPKGHKGTIQAGDVQWMTAGRGIIHSEFPEEEVNNGLQLWINLPSTEKMTEPKYKELSSLDIPRAEENGVEVKVIAGDSMGIKSPVYTRTPTMFLDFTLKPGSQTHQTVPESWTAFAYIIEGDEGVFGSLNSSAISAHHVVVFGPGDLVSVWNKSTSRSLRFLLIAGEPIGEPVVQCGPFVMNSQAEIDMAFDDYQNAKNGFEMAKC
notes: also called PRN1; Prn1
Take B1: the binding result in data set [1] and in data set [2] was “binds” each time. Also, the “quercetinase activity with activated conformation of AtGPA1” value in data set [3] (AtGPA1 pre-incubated with GTPγS, FIG. 2) is recorded as “no quercetinase activity”. Also, the “absorbance peak of quercetin with AtPirin1 and inactivated conformation of AtGPA1” value in data set [3] (AtGPA1 pre-incubated with non-hydrolysable GDP analog, FIG. 2) is 405-410 nm. Further, the “quercetinase activity (cleavage of quercetin)” value in data set [3] (AtPirin1 alone with quercetin, 15 min at 26° C., FIG. 1) is recorded as “specific cleavage of quercetin”. The “absorbance peak of quercetin after addition of AtPirin1” value in data set [3] (AtPirin1 alone, within 15 min at 26° C., quercetin alone 384 nm) was 405-410 nm.

The values above are taken from US20130133108A1, “EXTRACTS FROM PIRIN+ AND PIRIN- PLANTS AND USES THEREOF” (priority 2010, published 2013).
